Reference: US7057012B1, “PTH functional domain conjugate peptides, derivatives thereof and novel tethered ligand-receptor molecules” (The General Hospital Corporation, priority 1998, dated 2006)
Like-named read-outs stand apart in the source and are kept apart here.

Columns and labels:
[1] = tested on: COS-7 cells; assay: basal cAMP signaling of tethered ligand/receptor constructs in transiently transfected COS-7 cells; type: cell-based; details: for level of basal cAMP signaling: no agonist
Protocol: (§1) Cell Culture: COS-7 cells were cultured at 37° C. in T-75 flasks ([…] in Dulbecco's modified Eagle's medium (DMEM) supplemented with fetal bovine serum (10%), penicillin G (20 units/ml), streptomycin sulfate (20 μg/ml) and amphotericin B (0.05 μg/ml) in a humidified atmosphere containing 5% CO2. Cells were sub-cultured in 24-well plates and, when confluent, were treated with fresh media and shifted to 33° C. for 12 to 24 h prior to the assay (Bergwitz, C., et al., J. Biol. Chem. 272:28861–28868 (1997); Abell, A., et al., J. Biol. Chem. 271:4518–4527 (1996)).
PTH Receptor mutagenesis and COS-7 cell expression: The pcDNA-1-based plasmid encoding the intact HPTH-1 receptor (HK-WT in reference (Schipani, E., et al., Endocrinol. 132:2157–2165 (1993)) and herein called hP1R-WT) was used for studies in COS-7 cells. The truncated human PTH-1 receptor (hP1R-de1Nt) (FIG. 18) was constructed from the HK-WT plasmid by oligonucleotide-directed mutagenesis (Kunkel, T. A., Proc. Natl. Acad. Sci. USA 82:488–492 (1985)). This mutant receptor is deleted for residues 24 to 181 and, assuming that signal peptidase cleavage occurs between Ala^22 and Tyr^23 (Nielsen, H., et al., Protein Engineering 10:1–6 (1997)), is predicted to have Tyr^23 as the N-terminal residue joined directly to Glu^182 located at or near the boundary of the first transmembrane domain. A similarly truncated rat PTH receptor was described by us previously (Luck, M., et al., Molec. Endocrinol. 13:670–680 (1999)). The tethered human PTH-1 receptor [hP1R-Tether(1–9)] (hTether-1 in FIG. 17) is based on the hP1R-de1NT construct, and has PTH(1–9) and a four glycine spacer (AVSEIQLMHGGGG) (SEQ ID NO: 72) inserted between residues 23 and 182. Assuming that signal peptidase cleavage occurs between Ala^22 and Tyr^23, hP1R-Tether(1–9) is predicted to have Tyr^23 as the N-terminal residue joined directly to Ala of the ligand. Analogs of hP1R-Tether(1–9) were made in a similar fashion. Transient transfections of COS-7 cells were performed using DEAE-dextran and 200 ng of cesium chloride-purified plasmid DNA per well of a 24-well plate, as described previously (Bergwitz, C., et al., J. Biol. Chem. 272:28861–28868 (1997)).
cAMP Stimulation: Stimulation of cells with peptide analogs was performed in 24-well plates. Cells were rinsed with 0.5 mL of binding buffer (50 mM Tris-HCl, 100 mM NaCl, 5 mM KCl, 2 mM CaCl2, 5% heat-inactivated horse serum, 0.5% fetal bovine serum, adjusted to pH 7.7 with HCl) and treated with 200 μL of cAMP assay buffer (Dulbecco's modified Eagle's medium containing 2 mM 3-isobutyl-1-methylxanthine, 1 mg/mL bovine serum albumin, 35 mM Hepes-NaOH, pH 7.4) and 100 μL of binding buffer containing varying amounts of peptide analog (final volume=300 μL). The medium was removed after incubation for 1 h at room temperature, and the cells were frozen (−80° C.), lysed with 0.5 mL 50 mM HCl, and refrozen (−80° C.). The cAMP content of the diluted lysate was determined by radioimmunoassay.

[2] = tested on: COS-7 cells; assay: agonist-induced cAMP signaling of receptor constructs in transiently transfected COS-7 cells; type: cell-based
Protocol: as §1
PTH Receptor mutagenesis and COS-7 cell expression: The pcDNA-1-based plasmid encoding the intact HPTH-1 receptor (HK-WT in reference (Schipani, E., et al., Endocrinol. 132:2157–2165 (1993)) and herein called hP1R-WT) was used for studies in COS-7 cells. The truncated human PTH-1 receptor (hP1R-de1Nt) (FIG. 18) was constructed from the HK-WT plasmid by oligonucleotide-directed mutagenesis (Kunkel, T. A., Proc. Natl. Acad. Sci. USA 82:488–492 (1985)). […]
cAMP Stimulation: Stimulation of cells with peptide analogs was performed in 24-well plates. […] The cAMP content of the diluted lysate was determined by radioimmunoassay.

B1: hP1R-Tether(1–9): tethered human PTH-1 receptor: PTH(1–9) and four glycine spacer inserted between residues 23 and 182 of hP1R-delNT (protein)
chain: MGTARIAPGLALLLCCPVLSSAYAVSEIQLMHGGGGEVFDRLGMIYTVGYSVSLASLTVAVLILAYFRRLHCTRNYIHMHLFLSFMLRAVSIFVKDAVLYSGATLDEAERLTEEELRAIAQAPPPPATAAAGYAGCRVAVTFFLYFLATNYYWILVEGLYLHSLIFMAFFSEKKYLWGFTVFGWGLPAVFVAVWVSVRATLANTGCWDLSSGNKKWIIQVPILASIVLNFILFINIVRVLATKLRETNAGRCDTRQQYRKLLKSTLVLMPLFGVHYIVFMATPYTEVSGTLWQVQMHYEMLFNSFQGFFVAIIYCFCNGEVQAEIKKSWSRWTLALDFKRKARSGSSSYSYGPMVSHTSVTNVGPRVGLGLPLSPRLLPTATTNGHPQLPGHAKPGTPALETLETTPPAMAAPKDDGFLNGSCSGLDEEASGPERPPALLQEEWETVM
enhancement in the basal level of cAMP relative to hde1NT ([1]; absence of any agonist peptide): ~5 fold

B2: hP1R-Tether(1–10): hP1R-Tether construct with the ligand chain extended to position 10 (protein)
chain: EIQLMHNGGGGEVFDRLGMIYTVGYSVSLASLTVAVLILAYFRRLHCTRNYIHMHLFLSFMLRAVSIFVKDAVLYSGATLDEAERLTEEELRAIAQAPPPPATAAAGYAGCRVAVTFFLYFLATNYYWILVEGLYLHSLIFMAFFSEKKYLWGFTVFGWGLPAVFVAVWVSVRATLANTGCWDLSSGNKKWIIQVPILASIVLNFILFINIVRVLATKLRETNAGRCDTRQQYRKLLKSTLVLMPLFGVHYIVFMATPYTEVSGTLWQVQMHYEMLFNSFQGFFVAIIYCFCNGEVQAEIKKSWSRWTLALDFKRKARSGSSSYSYGPMVSHTSVTNVGPRVGLGLPLSPRLLPTATTNGHPQLPGHAKPGTPALETLETTPPAMAAPKDDGFLNGSCSGLDEEASGPERPPALLQEEWETVM
level of basal cAMP signaling [1]: moderate, but significant, improvements

B3: hP1R-Tether(1–11): hP1R-Tether construct with the ligand chain extended to position 11, native leucine at 11 (protein)
chain: EIQLMHNLGGGGEVFDRLGMIYTVGYSVSLASLTVAVLILAYFRRLHCTRNYIHMHLFLSFMLRAVSIFVKDAVLYSGATLDEAERLTEEELRAIAQAPPPPATAAAGYAGCRVAVTFFLYFLATNYYWILVEGLYLHSLIFMAFFSEKKYLWGFTVFGWGLPAVFVAVWVSVRATLANTGCWDLSSGNKKWIIQVPILASIVLNFILFINIVRVLATKLRETNAGRCDTRQQYRKLLKSTLVLMPLFGVHYIVFMATPYTEVSGTLWQVQMHYEMLFNSFQGFFVAIIYCFCNGEVQAEIKKSWSRWTLALDFKRKARSGSSSYSYGPMVSHTSVTNVGPRVGLGLPLSPRLLPTATTNGHPQLPGHAKPGTPALETLETTPPAMAAPKDDGFLNGSCSGLDEEASGPERPPALLQEEWETVM
level of basal cAMP signaling [1]: moderate, but significant, improvements

B4: hP1R-[R^11]-Tether(1–11): Made from hTether-1 by inserting Asn10-Arg11 between His9 and first Gly of linker (protein)
chain: MGTARIAPGLALLLCCPVLSSAYAVSEIQLMHNRGGGGEVFDRLGMIYTVGYSVSLASLTVAVLILAYFRRLHCTRNYIHMHLFLSFMLRAVSIFVKDAVLYSGATLDEAERLTEEELRAIAQAPPPPATAAAGYAGCRVAVTFFLYFLATNYYWILVEGLYLHSLIFMAFFSEKKYLWGFTVFGWGLPAVFVAVWVSVRATLANTGCWDLSSGNKKWIIQVPILASIVLNFILFINIVRVLATKLRETNAGRCDTRQQYRKLLKSTLVLMPLFGVHYIVFMATPYTEVSGTLWQVQMHYEMLFNSFQGFFVAIIYCFCNGEVQAEIKKSWSRWTLALDFKRKARSGSSSYSYGPMVSHTSVTNVGPRVGLGLPLSPRLLPTATTNGHPQLPGHAKPGTPALETLETTPPAMAAPKDDGFLNGSCSGLDEEASGPERPPALLQEEWETVM
basal signaling compared with maximum agonist-stimulated response of hP1R-WT [1]: approached the maximum response attained by hP1R-WT
time of maximum level of basal cAMP signaling [1]: 40 min
increase in basal cAMP signaling ([1]; comparator not restated): 20 fold
basal signaling compared with maximum agonist-stimulated response of hP1R-WT ([1]; listed as hP1R-[R^11]Tether-(1–11)): approached the maximum agonist-stimulated response attained by hP1R-wildtype
level of basal cAMP signaling [1]: increased still further
time of maximal agonist-induced signaling [2]: 40 min

B5: hP1R-WT: intact human PTH-1 receptor (protein)
chain: DADDVMTKEEQIFLLHRAQAQCEKRLKEVLQRPASIMESDKGWTSASTSGKPRKDKASGKLYPESEEDKEAPTGSRYRGRPCLPEWDHILCWPLGAPGEVVAVPCPDYIYDFNHKGHAYRRCDRNGSWELVPGHNRTWANYSECVKFLTNETREREVFDRLGMIYTVGYSVSLASLTVAVLILAYFRRLHCTRNYIHMHLFLSFMLRAVSIFVKDAVLYSGATLDEAERLTEEELRAIAQAPPPPATAAAGYAGCRVAVTFFLYFLATNYYWILVEGLYLHSLIFMAFFSEKKYLWGFTVFGWGLPAVFVAVWVSVRATLANTGCWDLSSGNKKWIIQVPILASIVLNFILFINIVRVLATKLRETNAGRCDTRQQYRKLLKSTLVLMPLFGVHYIVFMATPYTEVSGTLWQVQMHYEMLFNSFQGFFVAIIYCFCNGEVQAEIKKSWSRWTLALDFKRKARSGSSSYSYGPMVSHTSVTNVGPRVGLGLPLSPRLLPTATTNGHPQLPGHAKPGTPALETLETTPPAMAAPKDDGFLNGSCSGLDEEASGPERPPALLQEEWETVM
time of maximal agonist-induced signaling [2]: 40 min
